Measurements taken from article PMC8307404, “Crystal Structure-Guided Design of Bisubstrate Inhibitors and Photoluminescent Probes for Protein Kinases of the PIM Family” (Molecules, 2021).
Square brackets hold non-standard residues; d marks the D form. Peptide text beside a SMILES is read from it. * marks the point of attachment. X3 = O=C(CCCCCNCc1nc2c(sc3cc(Br)cnc32)c(=O)[nH]1)*

What was measured:
[1] = biological target: DYRK1A (Homo sapiens, UniProt Q13627); experiment: Kinase profiling (radiometric filter-binding); type: biochemical; details: 1 µM inhibitor, read-out: Residual activity, %
Description: (§1) Kinase selectivity profiling was performed using the commercial service provided by the MRC PPU International Centre for Kinase Profiling (Dundee, UK) using a radiometric filter-binding assay. Kinases used for analysis were of human origin. The ATP concentration applied for inhibition measurements was at or below the ATP KM value of the particular PK. ARC-3125 and ARC-3126 were screened against 139 PKs, whereas compounds 1, 2, and 8 were screened against 140 PKs. The final total concentration of inhibitors in the selectivity panel was 1 µM. Residual activities were expressed as the percentage of retained activity compared to the control without inhibitor.

[2] = biological target: PKBβ (Homo sapiens, UniProt P31751); experiment: Kinase profiling (radiometric filter-binding); type: biochemical; details: PKB, second of two PKB lines (Greek letter lost; PKBβ), 1 µM inhibitor; read-out: Residual activity, %
Chain of PKBβ (P31751 whole entry): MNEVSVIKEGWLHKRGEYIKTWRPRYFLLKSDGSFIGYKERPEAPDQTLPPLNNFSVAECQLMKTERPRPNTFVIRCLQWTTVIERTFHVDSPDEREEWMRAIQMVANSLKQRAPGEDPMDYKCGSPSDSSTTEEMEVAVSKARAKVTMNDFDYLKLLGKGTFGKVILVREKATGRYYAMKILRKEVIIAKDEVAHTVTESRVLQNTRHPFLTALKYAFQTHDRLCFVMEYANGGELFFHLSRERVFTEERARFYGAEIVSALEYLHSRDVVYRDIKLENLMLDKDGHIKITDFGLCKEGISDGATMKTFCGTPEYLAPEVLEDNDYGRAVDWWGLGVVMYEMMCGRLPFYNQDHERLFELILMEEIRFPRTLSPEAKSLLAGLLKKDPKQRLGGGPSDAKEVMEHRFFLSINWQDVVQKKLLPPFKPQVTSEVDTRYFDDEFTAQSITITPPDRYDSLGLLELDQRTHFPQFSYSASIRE
Description: as §1

[3] = biological target: T1, TBK1 (Homo sapiens, UniProt Q9UHD2); experiment: Kinase profiling (radiometric filter-binding); type: biochemical; details: TBK1, 1 µM inhibitor; read-out: Residual activity, %
T1 sequence (Q9UHD2 1-729): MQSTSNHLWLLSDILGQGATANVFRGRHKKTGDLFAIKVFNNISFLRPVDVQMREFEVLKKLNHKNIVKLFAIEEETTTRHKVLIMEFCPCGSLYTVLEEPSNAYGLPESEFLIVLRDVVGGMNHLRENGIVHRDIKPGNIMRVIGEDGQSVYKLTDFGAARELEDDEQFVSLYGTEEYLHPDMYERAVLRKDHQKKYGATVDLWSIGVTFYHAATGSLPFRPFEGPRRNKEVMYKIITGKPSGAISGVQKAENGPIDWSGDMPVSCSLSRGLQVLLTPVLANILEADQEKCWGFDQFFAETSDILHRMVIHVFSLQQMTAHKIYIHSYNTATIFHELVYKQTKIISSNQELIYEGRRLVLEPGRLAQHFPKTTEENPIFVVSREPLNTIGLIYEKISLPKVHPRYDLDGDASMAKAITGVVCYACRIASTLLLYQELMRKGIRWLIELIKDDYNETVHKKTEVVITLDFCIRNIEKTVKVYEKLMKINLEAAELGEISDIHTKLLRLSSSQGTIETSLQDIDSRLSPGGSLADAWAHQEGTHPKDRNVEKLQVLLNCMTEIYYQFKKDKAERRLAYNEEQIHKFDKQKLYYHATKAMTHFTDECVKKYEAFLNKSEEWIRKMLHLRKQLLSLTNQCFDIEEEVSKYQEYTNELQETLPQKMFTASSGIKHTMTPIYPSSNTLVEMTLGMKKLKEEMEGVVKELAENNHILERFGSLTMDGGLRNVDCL
Description: as §1

[4] = biological target: CAMK1 (Homo sapiens, UniProt Q14012); experiment: Kinase profiling (radiometric filter-binding); type: biochemical; details: CAMK1, 1 µM inhibitor; read-out: Residual activity, %
Chain of CAMK1 (Q14012 whole entry): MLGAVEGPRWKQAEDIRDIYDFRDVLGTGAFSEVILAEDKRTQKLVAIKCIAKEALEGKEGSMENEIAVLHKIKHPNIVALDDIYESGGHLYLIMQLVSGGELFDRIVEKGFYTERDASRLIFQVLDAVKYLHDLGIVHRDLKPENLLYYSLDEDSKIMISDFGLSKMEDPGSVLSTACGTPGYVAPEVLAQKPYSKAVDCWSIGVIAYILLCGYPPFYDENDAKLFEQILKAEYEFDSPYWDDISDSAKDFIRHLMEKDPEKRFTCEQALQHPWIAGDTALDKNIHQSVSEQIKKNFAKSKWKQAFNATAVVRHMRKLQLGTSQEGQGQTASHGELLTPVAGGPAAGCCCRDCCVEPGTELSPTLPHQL
Description: as §1

[5] = biological target: RSK1 (Homo sapiens, UniProt Q15418); experiment: Kinase profiling (radiometric filter-binding); type: biochemical; details: RSK1, 1 µM inhibitor; read-out: Residual activity, %
Chain of RSK1 (Q15418 whole entry): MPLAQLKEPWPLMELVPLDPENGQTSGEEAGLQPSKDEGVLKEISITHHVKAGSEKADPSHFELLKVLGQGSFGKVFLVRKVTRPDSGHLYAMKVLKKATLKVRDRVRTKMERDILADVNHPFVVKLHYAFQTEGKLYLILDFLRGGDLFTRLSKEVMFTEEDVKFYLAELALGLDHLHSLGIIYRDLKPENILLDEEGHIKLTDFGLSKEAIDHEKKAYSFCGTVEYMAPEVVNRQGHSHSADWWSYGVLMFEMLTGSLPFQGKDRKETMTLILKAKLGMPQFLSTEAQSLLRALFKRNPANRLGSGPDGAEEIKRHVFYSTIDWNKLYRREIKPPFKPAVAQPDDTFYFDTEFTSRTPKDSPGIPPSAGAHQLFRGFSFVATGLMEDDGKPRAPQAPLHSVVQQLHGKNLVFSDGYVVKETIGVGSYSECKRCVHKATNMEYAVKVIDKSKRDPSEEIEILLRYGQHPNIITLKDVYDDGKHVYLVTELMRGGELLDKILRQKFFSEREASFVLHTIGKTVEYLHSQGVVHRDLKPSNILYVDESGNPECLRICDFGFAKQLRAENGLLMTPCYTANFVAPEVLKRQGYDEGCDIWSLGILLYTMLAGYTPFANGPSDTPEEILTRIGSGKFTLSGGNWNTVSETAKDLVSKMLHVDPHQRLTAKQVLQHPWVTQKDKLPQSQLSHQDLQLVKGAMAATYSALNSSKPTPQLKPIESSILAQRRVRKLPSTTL
Description: as §1

[6] = biological target: T2, TAO1 (Homo sapiens, UniProt Q7L7X3); experiment: Kinase profiling (radiometric filter-binding); type: biochemical; details: TAO1, 1 µM inhibitor; read-out: Residual activity, %
T2 sequence (Q7L7X3 1-1001): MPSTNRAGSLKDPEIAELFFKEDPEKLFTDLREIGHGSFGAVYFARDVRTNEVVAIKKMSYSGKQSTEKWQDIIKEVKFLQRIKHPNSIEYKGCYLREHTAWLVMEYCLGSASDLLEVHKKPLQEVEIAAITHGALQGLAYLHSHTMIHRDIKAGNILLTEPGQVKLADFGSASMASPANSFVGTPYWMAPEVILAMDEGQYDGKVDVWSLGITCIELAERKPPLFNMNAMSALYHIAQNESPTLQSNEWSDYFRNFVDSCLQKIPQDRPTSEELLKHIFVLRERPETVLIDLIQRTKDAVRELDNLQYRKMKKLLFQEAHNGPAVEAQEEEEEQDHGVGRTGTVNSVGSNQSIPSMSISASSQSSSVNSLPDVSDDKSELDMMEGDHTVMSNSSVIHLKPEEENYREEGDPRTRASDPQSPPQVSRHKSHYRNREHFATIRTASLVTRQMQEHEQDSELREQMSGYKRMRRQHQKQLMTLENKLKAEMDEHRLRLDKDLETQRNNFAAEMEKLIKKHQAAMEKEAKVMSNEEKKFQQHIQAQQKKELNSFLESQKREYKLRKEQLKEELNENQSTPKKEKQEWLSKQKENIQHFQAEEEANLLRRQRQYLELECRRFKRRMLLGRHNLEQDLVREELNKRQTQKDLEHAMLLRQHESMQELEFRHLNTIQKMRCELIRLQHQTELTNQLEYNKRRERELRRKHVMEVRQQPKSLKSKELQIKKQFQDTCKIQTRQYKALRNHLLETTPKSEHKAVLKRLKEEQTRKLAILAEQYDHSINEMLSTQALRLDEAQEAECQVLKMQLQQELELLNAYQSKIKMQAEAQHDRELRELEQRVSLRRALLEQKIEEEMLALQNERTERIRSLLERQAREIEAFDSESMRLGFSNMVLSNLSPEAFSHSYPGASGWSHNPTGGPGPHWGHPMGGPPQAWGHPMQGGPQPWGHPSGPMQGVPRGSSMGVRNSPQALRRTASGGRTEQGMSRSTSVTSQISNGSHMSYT
Description: as §1

[7] = biological target: PIM2 (Homo sapiens, UniProt Q9P1W9); experiment: Binding/displacement assay with FA or TGLI readout; set-up: made in house; details: mean ± SEM, N = 2
Chain of PIM2 (Q9P1W9 whole entry): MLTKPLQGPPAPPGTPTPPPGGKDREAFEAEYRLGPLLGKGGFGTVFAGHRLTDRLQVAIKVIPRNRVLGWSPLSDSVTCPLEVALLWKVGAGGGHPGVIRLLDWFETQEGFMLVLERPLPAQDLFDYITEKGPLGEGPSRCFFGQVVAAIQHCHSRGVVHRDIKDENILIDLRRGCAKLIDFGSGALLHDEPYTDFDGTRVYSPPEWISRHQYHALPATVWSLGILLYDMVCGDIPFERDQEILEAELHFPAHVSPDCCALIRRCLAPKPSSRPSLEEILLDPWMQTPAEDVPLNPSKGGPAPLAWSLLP
Description: The affinities of the compounds toward the PIM family PKs were determined in a binding/displacement assay with measurement of fluorescence anisotropy (FA) and time-gated luminescence intensity (TGLI) (Table 2). For the initial assessment of the selectivity of compounds, PKAcα was used as the reference basophilic kinase [10].
Optical FA measurement modules for 5-TAMRA-labeled compounds (ex. 540(20) nm, em. 590(20) nm and 590(20) nm), for Cy5-labeled compounds (ex. 590(50) nm, em. 675(50) nm and 675(50) nm), and optical TGLI measurement modules for ARC-1451 (ex. 330(60) nm, em. 590(50) nm), for ARC-1188 (ex. 330(60) nm, em. 675(50) nm) were used for assays with PHERAstar microplate reader (BMG Labtech; Ortenberg, Germany). TGLI measurements were performed with a delay time of 50 μs and integration of the signal for 150 μs. In each measurement, emission from 200 flashes of excitation radiation was collected. The measurement solutions (20 µL volumes) were prepared in black 384-well low-binding surface microtiter plates (Corning #4514; Kennebunk, ME, USA) and incubated for 20 min at 30 °C before the measurements. The assay buffer contained HEPES hemisodium salt (pH 7.4, 50 mM), NaCl (150 mM), dithiothreitol (5 mM), bovine serum albumin (0.5 mg/mL), and Tween-20 (0.005%). […] 5.04 (GraphPad Software, Inc.) was used for data analysis with FA [32] or TGLI [33] readouts.

[8] = test system: p38 MAPK; experiment: Kinase profiling (radiometric filter-binding); type: biochemical, human; details: 1 µM inhibitor
Description: as §1

[9] = test system: AMPK; experiment: Kinase profiling (radiometric filter-binding); type: biochemical, human; details: 1 µM inhibitor
Description: as §1

[10] = test system: PINK; experiment: Kinase profiling (radiometric filter-binding); type: biochemical, human; details: 1 µM inhibitor
Description: as §1

[11] = fourth of four lines (Greek letter lost)
[12] = third of four lines (Greek letter lost)

Structure (SMILES)	remaining activity at 1 µM [1]	remaining activity at 1 µM [2]	remaining activity at 1 µM [3]	remaining activity at 1 µM [4]	remaining activity at 1 µM [5]	remaining activity at 1 µM [6]	Kd [7]	Residual activity, % [8, 11]	Residual activity, % [8, 12]	Residual activity, % [9]	Residual activity, % [10]
N=C(N)NCCC[C@@H](NC(=O)CCCCCNC(=O)Cn1cnc2c(I)c(I)c(I)c(I)c21)C(=O)N[C@H](CCCNC(=N)N)C(=O)N[C@H](CCCNC(=N)N)C(=O)N[C@H](CCCNC(=N)N)C(=O)N[C@H](CCCNC(=N)N)C(=O)N[C@H](CCCNC(=N)N)C(=O)N[C@H](CCCCN)C(N)=O [ARC-3125, TIBI-CH2-C(=O)-Ahx-(D-Arg)6-D-Lys-NH2]	28 ± 7%	1 ± 1%	68 ± 3%	3 ± 11%	19 ± 1%	32 ± 6%					
N=C(N)NCCC[C@@H](NC(=O)CCCCCNCc1nc2c(sc3cc(Br)cnc32)c(=O)[nH]1)C(=O)N[C@H](CCCNC(=N)N)C(=O)N[C@H](CCCNC(=N)N)C(=O)N[C@H](CCCNC(=N)N)C(=O)N[C@H](CCCNC(=N)N)C(=O)N[C@H](CCCNC(=N)N)C(=O)N[C@H](CCCCN)C(N)=O [ARC-3126, BPTP-Ahx-(D-Arg)6-D-Lys-NH2] (X3-[dR][dR][dR][dR][dR][dR][dK]-NH2)	99 ± 6%	86 ± 10%	105 ± 12%	55 ± 9%	82 ± 10%	95 ± 3%	2.9 ± 0.5 nM	129 ± 10%	111 ± 4%	38 ± 4%	
N=C(N)NCCC[C@@H](NC(=O)CNC(=O)[C@@H](CCCNC(=N)N)NC(=O)[C@@H](CCCNC(=N)N)NC(=O)CCCCCCCNCc1nc2c(sc3cc(Br)cnc32)c(=O)[nH]1)C(=O)N[C@H](CCCCN)C(N)=O [Compound 1, BPTP-Aoc-(D-Arg)2-Gly-D-Arg-D-Lys-NH2]	74%	115 ± 26%	113 ± 29%	81 ± 18%	95%	106 ± 10%	64 ± 8 nM	116 ± 6%	109 ± 7%	92 ± 9%	116 ± 5%
N=C(N)NCCC[C@@H](NC(=O)CNC(=O)[C@@H](CCCNC(=N)N)NC(=O)[C@@H](CCCNC(=N)N)NC(=O)CCCCCCCNCc1nc2c(sc3ccc(Br)cc32)c(=O)[nH]1)C(=O)N[C@H](CCCCN)C(N)=O [Compound 2, BBTP-Aoc-(D-Arg)2-Gly-D-Arg-D-Lys-NH2]	5%	101%	113%	81%	31%	49%	3.8 ± 0.2 nM	115 ± 0%	117 ± 1%	91 ± 4%	121 ± 17%
N=C(N)NCCC[C@@H](NC(=O)CNC(=O)[C@@H](CCCNC(=N)N)NC(=O)[C@@H](CCCNC(=N)N)NC(=O)Cn1cc(CNCc2nc3c(sc4ccc(Br)cc43)c(=O)[nH]2)nn1)C(=O)N[C@H](CCCCN)C(N)=O [Compound 3, BBTP-Amt-(D-Arg)2-Gly-D-Arg-D-Lys-NH2]	37 ± 15%	54 ± 6%	46 ± 4%	49 ± 11%	74 ± 12%	80 ± 4%	9.9 ± 0.8 nM	111 ± 1%	108 ± 8%	47 ± 6%	92 ± 0%
CN(C)c1ccc2c(c1)Oc1cc(N(C)C)ccc1C21OC(=O)c2cc(C(=O)NCCCC[C@@H](NC(=O)[C@@H](CCCNC(=N)N)NC(=O)CNC(=O)[C@@H](CCCNC(=N)N)NC(=O)[C@@H](CCCNC(=N)N)NC(=O)CCCCc3cn(Cc4nc5c(sc6ccc(Br)cc65)c(=O)[nH]4)nn3)C(N)=O)ccc21 [Compound 8, BBTP-Tap-(D-Arg)2-Gly-D-Arg-[D-Lys(5-TAMRA)]-NH2]	37%	54%	46%	49%	74%	80%	157 ± 39 nM				
